Measured values as given in US20250074980A1 (BRIGHAM AND WOMEN S HOSPITAL, published 2025).
Positions count from the first letter of the chain named. Names may count otherwise. “And” between values parts separate entries of the source, which are not always exact repeats. Equal entries are not always repeated.

B1: VH1/Vκ8 (antibody, IgG4, V domains shown)
VH: EVQLLESGGGLVQPGGSLRLSCAASGFIFSSHGMSWVRQAPGKGLEWVATISSGGTYTYYPDSVKGRFTISRDNSKNTLYLQMNSLKAEDTAMYYCARHDFDYDAAWFAYWGQGTLVTVSS
VL: EIVLTQSPATLSLSPGERATLSCRANSSVSYMYWYQQKPGQAPRPWIYLTSNRATGVPARFSGSGSGTDYTLTISSLEPEDFAVYYCQQWSSNPPTFGQGTKLEIK
notes: IgG4 (S241P), kappa
B2: VH2/Vκ9 (antibody, IgG4, V domains shown)
VH: B1 VH with K87R
VL: B1 VL with W46L, V84T
notes: IgG4 (S241P), kappa
B3: VH2/Vκ11 (antibody, IgG4, V domains shown)
VH: B1 VH with K87R
VL: B1 VL with V57I
notes: IgG4 (S241P), kappa
B4: VH2/Vκ7 (antibody, IgG4, V domains shown)
VH: B1 VH with K87R
VL: B1 VL with Y70F, V84T
notes: IgG4 (S241P), kappa
B5: VH2/Vκ8 (antibody, IgG4, V domains shown)
VH: B1 VH with K87R
VL: B1 VL
notes: IgG4 (S241P), kappa
B6: VH1/Vκ12 (antibody, IgG4, V domains shown)
VH: B1 VH
VL: B1 VL with W46L, V57I, V84T
notes: IgG4 (S241P), kappa
B7: VH1/Vκ10 (antibody, IgG4, V domains shown)
VH: B1 VH
VL: B1 VL with V57I, Y70F, V84T
notes: IgG4 (S241P), kappa
B8: VH2/Vκ12 (antibody, IgG4, V domains shown)
VH: B1 VH with K87R
VL: B1 VL with W46L, V57I, V84T
notes: IgG4 (S241P), kappa
B9: VH1/Vκ9 (antibody, IgG4, V domains shown)
VH: B1 VH
VL: B1 VL with W46L, V84T
notes: IgG4 (S241P), kappa
B10: VH2/Vκ10 (antibody, IgG4, V domains shown)
VH: B1 VH with K87R
VL: B1 VL with V57I, Y70F, V84T
notes: IgG4 (S241P), kappa

Assays:
[1] = molecular target: T1, CEACAM3 on transfected HeLa cells (human, UniProt P40198 35-252); experiment: flow cytometry, transfected HeLa
T1 construct: whole, on cells; also called HeLa-CEACAM3; HeLa C3
T1 sequence (looked up): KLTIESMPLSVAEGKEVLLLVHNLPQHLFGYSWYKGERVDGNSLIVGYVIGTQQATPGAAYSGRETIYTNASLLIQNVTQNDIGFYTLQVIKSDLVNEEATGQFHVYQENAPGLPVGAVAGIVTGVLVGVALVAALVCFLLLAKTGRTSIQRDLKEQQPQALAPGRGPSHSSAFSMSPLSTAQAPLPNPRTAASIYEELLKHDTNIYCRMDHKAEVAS
Method in brief: (§1)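 HeLa cells stably transfected with single CEACAM family members were grown in DMEM with 10% fetal bovine serum at 37° C and 5.0% CO₂. After staining with the test antibody and then a fluorochrome-conjugated isotype-specific secondary antibody, with DAPI as the viability dye, the cells were run on a Cytoflex and the data analysed in FlowJo. Binding selectivity is reported as the staining of each transfectant.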

[2] = molecular target: T2, CEACAM8 on transfected HeLa cells (human, UniProt P31997 35-320); experiment: flow cytometry, transfected HeLa
T2 construct: whole, on cells; also called HeLa-CEACAM8; HeLa C8
T2 sequence (looked up): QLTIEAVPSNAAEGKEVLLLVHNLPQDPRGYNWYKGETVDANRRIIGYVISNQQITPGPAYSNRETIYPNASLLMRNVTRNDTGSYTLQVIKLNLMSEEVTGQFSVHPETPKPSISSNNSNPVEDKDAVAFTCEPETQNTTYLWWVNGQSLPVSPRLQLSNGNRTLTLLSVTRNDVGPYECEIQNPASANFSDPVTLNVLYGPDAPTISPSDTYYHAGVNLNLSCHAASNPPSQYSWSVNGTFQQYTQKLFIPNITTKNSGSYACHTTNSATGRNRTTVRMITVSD
Method in brief: as §1

His-tagged CEACAM1 [3] = molecular target: T3, His-tagged CEACAM1 (human, UniProt P13688 35-428); experiment: SPR multi-cycle, IgG captured
T3 construct: 45 kDa SPR analyte; also called CEACAM1-HIS; CEACAM1 analyte
T3 sequence: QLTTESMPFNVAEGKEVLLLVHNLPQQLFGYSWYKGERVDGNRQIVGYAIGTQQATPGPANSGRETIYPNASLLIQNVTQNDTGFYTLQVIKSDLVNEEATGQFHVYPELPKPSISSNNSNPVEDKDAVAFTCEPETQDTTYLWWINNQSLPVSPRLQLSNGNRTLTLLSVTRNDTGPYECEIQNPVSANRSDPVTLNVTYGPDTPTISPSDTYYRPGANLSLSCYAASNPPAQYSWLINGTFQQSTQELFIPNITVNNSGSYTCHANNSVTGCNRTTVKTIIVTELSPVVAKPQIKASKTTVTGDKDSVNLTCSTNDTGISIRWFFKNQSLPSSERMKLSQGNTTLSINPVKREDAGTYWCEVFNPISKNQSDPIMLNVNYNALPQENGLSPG
Description: As an alternative approach to assess the binding of the 36 antibody combinations and the three control antibodies to CEACAM1, a kinetic analysis was performed on a Biacore T200 (serial no. 1909913) running Biacore T200 Evaluation Software V2.0.1 (Uppsala, Sweden). All experiments were run at 25° C. with HBS-P+ running buffer (pH 7.4) (GE Healthcare, cat. no. BR100671). All kinetic experiments were performed using His-tagged CEACAM1 as the analyte. For all experiments, antibodies were immobilized onto a Series S Protein A sensor chip surface. For kinetic experiments, the amount of immobilized/captured ligand was limited to avoid mass transfer effects at the surface of the chip with the surface ideally having an analyte binding level (Rₘₐₓ) of 50-150 RUs. Using a MW of 45 kDa for the CEACAM1 analyte, 150 kDa for the antibody ligand (estimated value for IgG), 50 RU for Rmax and the stoichiometry (Sm) as 2 due to the ability of each antibody to bind 2 target molecules, a target response level of ˜75 RUs was set for capture of all the sample antibodies.
The signal from the reference channel Fc1 was subtracted from that of Fc2, Fc3 and Fc4 to correct for differences in non-specific binding to a reference surface, a global Rmax parameter was used in the 1-to-1 binding model. The relative Kp compared to […] was calculated by dividing the Kp of the humanized CEACAM antibody variants by that of the chimeric antibody VH0/Vκ0 on the same chip. A summary of the averaged relative Kp obtained for the 12 antibody combinations analyzed using multi cycle kinetics can be found in Table 5.

His-tagged CEACAM1 [4] = molecular target: T3, His-tagged CEACAM1; experiment: SPR single-cycle, IgG captured
Method in brief: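 Biacore T200 single-cycle kinetics at 25° C in HBS-P+ (pH 7.4): antibodies (purified or HEK EBNA supernatant, 1 μg/ml) captured on Protein A to ~75 RU, His-tagged CEACAM1 analyte at 3.125–50 nM (5-point 2-fold) at 50 μl/min without regeneration. Reference channel Fc1 subtracted.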

[5] = molecular target: T4, CEACAM6 on transfected HeLa cells (human, UniProt P40199 35-320); experiment: flow cytometry, HeLa-CEACAM6 transfectants, % positive cells
T4 construct: whole, on cells; also called HeLa-CEACAM6; HeLa C6
T4 sequence (looked up): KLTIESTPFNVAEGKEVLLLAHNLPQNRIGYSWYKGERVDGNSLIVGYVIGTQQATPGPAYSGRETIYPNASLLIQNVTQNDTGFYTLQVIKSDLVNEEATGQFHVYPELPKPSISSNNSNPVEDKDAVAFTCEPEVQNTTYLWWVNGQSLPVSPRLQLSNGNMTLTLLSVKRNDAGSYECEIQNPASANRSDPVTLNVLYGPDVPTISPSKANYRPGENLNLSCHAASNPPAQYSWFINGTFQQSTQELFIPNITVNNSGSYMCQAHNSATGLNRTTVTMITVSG
Description: Binding selectivity for CEACAM1 was tested for the 24 humanized antibody variants that bound to CEACAM1 (see Table 3), as well as the chimeric control antibody VH0/Vκ0, by flow cytometry on HeLa cells transfected with CEACAM1, 3, 5, 6 and 8. […] There was no evidence of any staining of the HeLa-CEACAM3 or HeLa-CEACAM8 transfectants. […] Due to its favorable affinity to and selectivity for CEACAM1 as well as its favorable expression level, VH1/Vκ8 was chosen as the framework for affinity maturation.

Binder | binding result [1] | binding result [2] | Kd (His-tagged CEACAM1 [3]) | average relative KD to VH0/Vκ0 (His-tagged CEACAM1 [3]) | koff (His-tagged CEACAM1 [3]) [s⁻¹] | kon (His-tagged CEACAM1 [3]) [M⁻¹ s⁻¹] | relative KD to VH0/Vκ0 (His-tagged CEACAM1 [3]) | Kd (His-tagged CEACAM1 [4]) [nM] | relative KD to VH0/Vκ0 (His-tagged CEACAM1 [4]) | binding result [5]
B1 | no binding | no binding | 95 nM | 1.8 | 0.0406 | 430000 | 1.8 | 131 | 3.2 | no binding
B2 | no binding | no binding | 96 nM and 75 nM | 1.9 | – | – | – | 110 | 2.7 | no binding
B3 | no binding | no binding | 77 nM | 2.7 | 0.0289 | 375000 | 2.5 | 122 | 3 | no binding
B4 | no binding | no binding | 71 nM | 2.3 | 0.0258 | 362000 | 2.4 | 152 | 3.7 | no binding
B5 | no binding | no binding | 125 nM | 2.3 | 0.0417 | 334000 | 2.3 | 125 | 3 | no binding
B6 | no binding | no binding | 65 nM | 2.2 | 0.0268 | 411000 | 2.2 | 143 | 3.5 | no binding
B7 | no binding | no binding | 180 nM | 3.2 | 0.0511 | 284000 | 3.2 | 146 | 3.5 | no binding
B8 | no binding | no binding | 152 nM | 2.7 | 0.0458 | 302000 | 2.7 | 145 | 3.5 | no binding
B9 | no binding | no binding | 220 nM | 4 | 0.0504 | 229000 | 4 | 142 | 3.4 | no binding
B10 | no binding | no binding | 61 nM | 2.1 | 0.0246 | 407000 | 2.1 | 131 | 3.2 | no binding
